Patent US20190328788A1 (GENAGON THERAPEUTICS, published 2019)
Ends that are not written are not given here.

T1: Growth and Differentiation Factor 15 (GDF15) (UniProt Q99988 197-308, limits assumed)
T1 construct: also called MIC-1; MIC1
T1 sequence (looked up): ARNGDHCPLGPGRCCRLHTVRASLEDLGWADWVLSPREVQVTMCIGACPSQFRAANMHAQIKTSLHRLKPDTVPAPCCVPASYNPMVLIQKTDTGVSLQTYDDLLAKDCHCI

T2: transforming growth factor-beta 2 (TGF-β2) (UniProt P61812 303-414)
T2 construct: also called TGFb2; TGFB2
T2 sequence (looked up): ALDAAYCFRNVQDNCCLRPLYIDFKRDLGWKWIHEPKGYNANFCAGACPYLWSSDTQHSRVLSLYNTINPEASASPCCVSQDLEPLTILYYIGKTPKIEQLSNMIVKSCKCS

T3: transforming growth factor-beta 3 (TGF-β3) (UniProt P10600 301-412)
T3 construct: also called TGFb3; TGFB3
T3 sequence (looked up): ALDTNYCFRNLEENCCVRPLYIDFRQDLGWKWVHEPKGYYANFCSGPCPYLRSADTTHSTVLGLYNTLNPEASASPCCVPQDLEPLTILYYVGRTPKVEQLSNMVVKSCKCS

B1: CLPTM1 peptide fragment of SEQ ID NO: 33 (peptide)
peptide: LWRWQLYAAQSTKSPWNFLGDELYEQSDEEQDSVKVALLETNP
modifications: also: biotinylated, site not given here
notes: also called peptide 26; GT2
B2: CLPTM1 peptide fragment of SEQ ID NO: 11 (peptide)
peptide: RIFIIWAISSWFRRGPAPQDG
modifications: also: biotinylated, site not given here
B3: CLPTM1 peptide fragment of SEQ ID NO: 9 (peptide)
peptide: SGQVTSNGSIGRDPPAETQPG
modifications: also: biotinylated, site not given here
B4: CLPTM1 peptide fragment of SEQ ID NO: 20 (peptide)
peptide: ITINIVDDHTPWVKGSVPPPG
modifications: also: biotinylated, site not given here
B5: CLPTM1 peptide fragment of SEQ ID NO: 17 (peptide)
peptide: KALYRRLATVHMSRMINKYKG
modifications: also: biotinylated, site not given here
notes: also called peptide 10
B6: CLPTM1 peptide fragment of SEQ ID NO: 15 (peptide)
peptide: SDGCYEHFAELDIPQSVQQNG
modifications: also: biotinylated, site not given here
B7: CLPTM1 peptide fragment of SEQ ID NO: 37 (peptide)
peptide: TKSGFHPDPRQKALYRRLATVHMSRMINKYKRRRFQKTKN
modifications: also: biotinylated, site not given here
notes: also called peptide 30; GT6
B8: CLPTM1 peptide fragment of SEQ ID NO: 36 (peptide)
peptide: DTLMNLHVYISEHEHFTDFNATSALFWEQHDLVYGDWTSG
modifications: also: biotinylated, site not given here
notes: also called peptide 29; GT5
B9: CLPTM1 peptide fragment of SEQ ID NO: 40 (peptide)
peptide: SGDYYPIIYFNDYWNLQKDYYPINESLA
modifications: also: biotinylated, site not given here
notes: also called peptide 33; GT9
B10: CLPTM1 peptide fragment of SEQ ID NO: 32 (peptide)
peptide: SGDYYPIIYFNDYWNLQKDYYPINESLASLPLRVSFCPLS
modifications: also: biotinylated, site not given here
notes: also called peptide 25; GT1
B11: CLPTM1 peptide fragment of SEQ ID NO: 19 (peptide)
peptide: MIKRAEDYGPVEVISHWHPNG
modifications: also: biotinylated, site not given here
B12: CLPTM1 peptide fragment of SEQ ID NO: 14 (peptide)
peptide: SALFWEQHDLVYGDWTSGENG
modifications: also: biotinylated, site not given here
B13: CLPTM1 peptide fragment of SEQ ID NO: 18 (peptide)
peptide: RRRFQKTKNLLTGETEADPEG
modifications: also: biotinylated, site not given here
B14: CLPTM1 peptide fragment of SEQ ID NO: 10 (peptide)
peptide: QNPPAQPAPNAWQVIKGVLFG
modifications: also: biotinylated, site not given here
B15: CLPTM1 peptide fragment of SEQ ID NO: 34 (peptide)
peptide: ARSAVVAAGGGSSGQVTSNGSIGRDPPAETQPQNPPAQPA
modifications: also: biotinylated, site not given here
notes: also called peptide 27; GT3
B16: CLPTM1 peptide fragment of SEQ ID NO: 38 (peptide)
peptide: VSGDYYPIIYFNDYWNLQKDYYPINESLASLPLRVSFC
modifications: also: biotinylated, site not given here
notes: also called peptide 31; GT7
B17: CLPTM1 peptide fragment of SEQ ID NO: 8 (peptide)
peptide: AAAQEADGARSAVVAAGGGSG
modifications: also: biotinylated, site not given here
B18: CLPTM1 peptide fragment of SEQ ID NO: 35 (peptide)
peptide: NAWQVIKGVLFRIFIIWAISSWFRRGPAPQDQAGPGGA
modifications: also: biotinylated, site not given here
notes: also called peptide 28; GT4
B19: CLPTM1 peptide fragment of SEQ ID NO: 21 (peptide)
peptide: LDQYVKFDAVSGDYYPIIYFG
modifications: also: biotinylated, site not given here
notes: also called peptide 14
B20: CLPTM1 peptide fragment of SEQ ID NO: 16 (peptide)
peptide: GSIYIHVYFTKSGFHPDPRQG
modifications: also: biotinylated, site not given here
B21: CLPTM1 peptide fragment of SEQ ID NO: 12 (peptide)
peptide: QAGPGGAPRVASRNLFPKDTG
modifications: also: biotinylated, site not given here
B22: CLPTM1 peptide fragment of SEQ ID NO: 39 (peptide)
peptide: PLDQYVKFDAVSGDYYPIIYFNDYWNLQKDYYPINESLA
modifications: also: biotinylated, site not given here
notes: also called peptide 32; GT8
B23: CLPTM1 peptide fragment of SEQ ID NO: 13 (peptide)
peptide: LMNLHVYISEHEHFTDFNATG
modifications: also: biotinylated, site not given here

These binders were tested against T1, Growth and Differentiation Factor 15 … (assay: ELISA, peptide on streptavidin plate, ligand 100 ng/ml).
Description: (§1) Biotinylated synthetic peptide fragments from CLPTM1 (JPT peptides, Germany) were immobilized in a streptavidin 96 well plate (#15500 Pierce) at 1 μM in PBS over night at +4° C. Plate was then washed 4 times in 300 μl PBS with 0.05% tween-20 (wash buffer). The plate was then blocked with PBS 1% BSA and 0.05% tween-20 (blocking buffer) for 1.5 hours at room temperature, then washed 4 times in wash buffer. Ligands GDF15, TGFb1, TGFb2 and TGFb3 (Abcam) were added in blocking buffer at 100 ng/ml and incubated at room temperature for 2 hours. The plate was then washed 8 times in 300 μL wash buffer with 2× NaCl. An anti-GDF15 antibody was added at 1 μg/ml (R&D Systems, goat polyclonal) or a pan-specific anti-TGFb antibody (R&D Systems, mouse 1 D11), and the plate incubated in blocking buffer for 1 hour at room temperature followed by washing with 4×300 μl wash buffer. HAF017 anti-goat-HRP antibody (to detect the anti-GDF15 antibody) or Santa Cruz sc-2005 Goat anti-mouse-HRP (to detect the pan-specific anti-TGFb antibody) was added and the plate incubated for 1 hour in blocking buffer followed by a wash. TMB substrate was added and stopped after 15 minutes with H₂SO₄. OD 450-620 was measured in an ELISA reader.

Compared with B1, B2 is higher in “ELISA OD450” value: 0.021 OD450 for the first, 0.026 OD450 for the second.

Compared with B3, B4 is higher in “ELISA OD450” value: 0.009 OD450 for the first, 0.098 OD450 for the second.

Going from B5 to B6, the “ELISA OD450” value falls from 0.197 OD450 to 0.024 OD450.

Compared with B7, B8 is lower in “ELISA OD450” value: 0.209 OD450 for the first, 0.174 OD450 for the second.

First: B9
Second: B10
The “ELISA OD450” value of the first is lower: 0.518 OD450 for the first, 0.779 OD450 for the second.

Going from B11 to B12, the “ELISA OD450” value rises from 0.028 OD450 to 0.034 OD450.

Compared with B13, B14 is higher in “ELISA OD450” value: 0.021 OD450 for the first, 0.042 OD450 for the second.

Compared with B15, B16 is higher in “ELISA OD450” value: 0.016 OD450 for the first, 0.383 OD450 for the second.

First: B17
Second: B18
The “ELISA OD450” value of the first is lower: 0.022 OD450 for the first, 0.029 OD450 for the second.

First: B19
Second: B20
The “ELISA OD450” value of the first is lower: 0.14 OD450 for the first, 0.149 OD450 for the second.

Going from B21 to B22, the “ELISA OD450” value rises from 0.034 OD450 to 0.137 OD450.

For B23, the “ELISA OD450” value was 0.058 OD450.

What follows are binders tested against T4, transforming growth factor-beta 1 (TGF-β1) (UniProt P01137 279-390) in the same assay as above.
T4 construct: also called TGFb1; TGFB1
Description: as §1

T4 sequence (P01137 279-390 limits assumed): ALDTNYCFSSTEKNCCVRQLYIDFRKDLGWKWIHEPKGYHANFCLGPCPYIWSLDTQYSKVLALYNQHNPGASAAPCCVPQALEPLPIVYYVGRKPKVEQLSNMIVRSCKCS

Going from B1 to B2, the “ELISA OD450” value falls from 0.177 OD450 to 0.008 OD450.

Compared with B3, B4 is higher in “ELISA OD450” value: 0.002 OD450 for the first, 0.011 OD450 for the second.

Going from B5 to B6, the “ELISA OD450” value falls from 0.913 OD450 to 0.006 OD450.

Going from B7 to B8, the “ELISA OD450” value rises from 0.389 OD450 to 1.64 OD450.

First: B9
Second: B10
The “ELISA OD450” value of the first is higher: 2.81 OD450 for the first, 2.1 OD450 for the second.

First: B11
Second: B12
The “ELISA OD450” value of the first is lower: 0.006 OD450 for the first, 0.022 OD450 for the second.

First: B13
Second: B14
The “ELISA OD450” value of the first is lower: 0.002 OD450 for the first, 0.026 OD450 for the second.

First: B15
Second: B16
The “ELISA OD450” value of the first is lower: 0.058 OD450 for the first, 1.01 OD450 for the second.

First: B17
Second: B18
The “ELISA OD450” value of the first is lower: 0.012 OD450 for the first, 0.098 OD450 for the second.

Compared with B19, B20 is lower in “ELISA OD450” value: 0.152 OD450 for the first, 0.122 OD450 for the second.

Compared with B21, B22 is higher in “ELISA OD450” value: 0.003 OD450 for the first, 1.86 OD450 for the second.

B23 was tested, and the “ELISA OD450” value was 0.02 OD450.

The binders below were run against T2, transforming growth factor-beta 2 … in the same assay as above.
Description: as §1

First: B1
Second: B2
The “ELISA OD450” value of the first is higher: 0.009 OD450 for the first, -0.003 OD450 for the second.

Going from B3 to B4, the “ELISA OD450” value rises from 0.001 OD450 to 0.005 OD450.

Compared with B5, B6 is lower in “ELISA OD450” value: 1.01 OD450 for the first, -0.003 OD450 for the second.

First: B7
Second: B8
The “ELISA OD450” value of the first is lower: 0.483 OD450 for the first, 0.838 OD450 for the second.

Compared with B9, B10 is lower in “ELISA OD450” value: 2.09 OD450 for the first, 1.63 OD450 for the second.

B11 and B12 are the same in “ELISA OD450” value: 0.002 OD450 for the first, 0.002 OD450 for the second.

Going from B13 to B14, the “ELISA OD450” value rises from 0.002 OD450 to 0.013 OD450.

First: B15
Second: B16
The “ELISA OD450” value of the first is lower: 0.123 OD450 for the first, 0.717 OD450 for the second.

First: B17
Second: B18
The “ELISA OD450” value of the first is lower: 0.01 OD450 for the first, 0.031 OD450 for the second.

Going from B19 to B20, the “ELISA OD450” value rises from 0.019 OD450 to 0.107 OD450.

Going from B21 to B22, the “ELISA OD450” value rises from -0.006 OD450 to 0.91 OD450.

B23 was tested, and the “ELISA OD450” value was 0.005 OD450.

These binders were tested against T3, transforming growth factor-beta 3 … in the same assay as above.
Description: as §1

First: B1
Second: B2
The “ELISA OD450” value of the first is higher: 0.007 OD450 for the first, 0.003 OD450 for the second.

Compared with B3, B4 is higher in “ELISA OD450” value: 0.001 OD450 for the first, 0.068 OD450 for the second.

First: B5
Second: B6
The “ELISA OD450” value of the first is higher: 0.046 OD450 for the first, 0.004 OD450 for the second.

Compared with B7, B8 is lower in “ELISA OD450” value: 0.613 OD450 for the first, 0.095 OD450 for the second.

Going from B9 to B10, the “ELISA OD450” value falls from 0.399 OD450 to 0.3 OD450.

Going from B11 to B12, the “ELISA OD450” value rises from 0.004 OD450 to 0.02 OD450.

Compared with B13, B14 is higher in “ELISA OD450” value: 0.004 OD450 for the first, 0.006 OD450 for the second.

Compared with B15, B16 is higher in “ELISA OD450” value: 0.003 OD450 for the first, 0.091 OD450 for the second.

Compared with B17, B18 is higher in “ELISA OD450” value: 0.015 OD450 for the first, 0.027 OD450 for the second.

Going from B19 to B20, the “ELISA OD450” value falls from 0.065 OD450 to 0.02 OD450.

First: B21
Second: B22
The “ELISA OD450” value of the first is lower: 0.004 OD450 for the first, 0.074 OD450 for the second.

B23 was tested, and the “ELISA OD450” value was 0.014 OD450.
